B1: library; a variant is named by its letters at N, in order (parent)
chain: ACATTTGTTGATACAACCATAAAATGATAATTACACCCATAAATTGATAATTATCACACCCANNNNNNNNNNNNNNCTCTGATCATAGTCAGACCAACATTGCTACGACCCGTATTCGCACCGACAC

Variants of B1 are the subject of data set [1]. Description: relative integration efficiency (T-RL orientation) vs wild-type transposon end (log2 (normalized fold change)); transposon end mutated: right end (5 bp flank + 75 bp right end); higher = more efficient transposition. The following applies: with VchCAST RNA-guided transposition machinery (E. coli BL21(DE3) host, lacZ target). How it is done: (§1)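 Pooled, barcoded VchCAST (Tn6677) mini-transposon donor libraries; each variable transposon-end sequence sits in a fixed pDonor mini-transposon context (10-bp barcode and cargo not included). Left- or right-end libraries were co-transformed with pEffector (TniQ-Cascade, TnsABC, lacZ crRNA, T7, 0.1 mM IPTG) into E. coli BL21(DE3) and grown 18 h at 37 C. T-LR and T-RL junction amplicons were sequenced; output/input barcode fold change was normalised to the mean of four wild-type barcodes and log2-transformed. Two biological replicates; zero-count/undetected variants carry floor values (-10 / -15), censored here. Barcode uncoupling by PCR recombination adds noise.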

Variants of B1 are the subject of data set [2]. Description: relative integration efficiency (T-LR orientation) vs wild-type transposon end (log2 (normalized fold change)); transposon end mutated: right end (5 bp flank + 75 bp right end); higher = more efficient transposition. Particulars: with VchCAST RNA-guided transposition machinery (E. coli BL21(DE3) host, lacZ target). The protocol:
as §1

± gives the standard deviation of the averaged measurements.

58 variants from the supplement of paper PMC10201428 can be followed below.

As for TAAATTGATATTGC A62C, the “relative integration efficiency (log2)” value in data set [1] is -0.726 ± 0.016; in data set [2], 2.18 ± 0.2.

As for TAAATTGATATTGC C37T, the results for the “relative integration efficiency (log2)” value in data set [1] and in data set [2] were -0.229 ± 0.057 and -0.304 ± 0.57, respectively.

On to TAAATTGATATTGC C37A, for which the “relative integration efficiency (log2)” value in data set [1] is -0.531 ± 0.059; in data set [2], -1.21 ± 0.23.

TAAATTGATATTGC C37G: the results for the “relative integration efficiency (log2)” value in data set [1] and in data set [2] were -0.123 ± 0.11 and -0.169 ± 0.072, respectively.

Turning to TATATTGATATTGC, the “relative integration efficiency (log2)” value in data set [1] is 0.155 ± 0.039; in data set [2], 0.337 ± 0.47.

With TAAATTGATATTGC C55G, the “relative integration efficiency (log2)” value in data set [1] is -0.145 ± 0.21; in data set [2] it was 0.0542 ± 0.17.

In the case of TAAATTGATATTGC C55A, the results for the “relative integration efficiency (log2)” value in data set [1] and in data set [2] were -0.759 ± 0.066 and 0.402 ± 0.41, respectively.

TAAATTGATATTGC C55T: the “relative integration efficiency (log2)” value is -0.293 ± 0.17 in data set [1] and 0.175 ± 0.29 in data set [2].

As to GAAATTGATATTGC A62C, the “relative integration efficiency (log2)” value in data set [1] was -0.604 ± 0.16; in data set [2] it was 2.52 ± 0.065.

Regarding TAAATTGATATTGC A39T, the “relative integration efficiency (log2)” value is -0.236 ± 0.061 in data set [1] and -0.533 ± 0.43 in data set [2].

For the variant TAAATTGATATTGC A39C, the “relative integration efficiency (log2)” value is -1.23 ± 0.021 in data set [1] and -1.05 ± 0.2 in data set [2].

For TAAATTGATATTGC A39G, the “relative integration efficiency (log2)” value in data set [1] was -0.0861 ± 0.07; in data set [2], -0.449 ± 0.17.

As for TCCCGTGATATTGC, the figures for the “relative integration efficiency (log2)” value in data set [1] and in data set [2] were -0.648 ± 0.091 and 2.35 ± 0.13, respectively.

With TAAATTGATATTGC A49T, the “relative integration efficiency (log2)” value in data set [1] was -0.47 ± 0.16; in data set [2], 0.117 ± 0.012.

For the variant TAAATTGATATTGC A49C, the figures for the “relative integration efficiency (log2)” value in data set [1] and in data set [2] were -0.518 ± 0.15 and -0.614 ± 0.38, respectively.

Consider TAAATTGATATTGC A49G, for which the “relative integration efficiency (log2)” value was -0.49 ± 0.084 in data set [1] and -0.155 ± 0.12 in data set [2].

Consider TAAATTGATATTGC C36G, for which the “relative integration efficiency (log2)” value is -0.469 ± 0.0075 in data set [1] and -0.695 ± 0.23 in data set [2].

As to TAAATTGATATTGC C36A, the “relative integration efficiency (log2)” value came to 0.40973 ± 0.00019 in data set [1] and 0.478 ± 0.0049 in data set [2].

Regarding TAAATTGATATTGC C36T, the “relative integration efficiency (log2)” value in data set [1] was -0.172 ± 0.077; in data set [2], -0.179 ± 0.053.

As for TAAATTGTTATTGC, the “relative integration efficiency (log2)” value in data set [1] is -0.347 ± 0.057; in data set [2] it was 1.61 ± 0.16.

With TAAATTGATATTGC C61T, the figures for the “relative integration efficiency (log2)” value in data set [1] and in data set [2] were -0.0918 ± 0.017 and 0.755 ± 0.17, respectively.

Turning to TAAATTGATATTGC C61G, the “relative integration efficiency (log2)” value was found to be 0.142 ± 0.018 in data set [1] and 0.81 ± 0.3 in data set [2].

TAAATTGATATTGC C61A: the “relative integration efficiency (log2)” value in data set [1] is -0.241 ± 0.071; in data set [2], 1.04 ± 0.15.

With TATTAAGATATTGC, the “relative integration efficiency (log2)” value in data set [1] is -0.535 ± 0.084; in data set [2], 1.66 ± 0.11.

For TAAATTGTATATGC, the “relative integration efficiency (log2)” value was -0.247 ± 0.1 in data set [1] and 0.948 ± 0.27 in data set [2].

Consider TCCATTGATATTGC, for which the “relative integration efficiency (log2)” value in data set [1] was -0.657 ± 0.14; in data set [2], 2.16 ± 0.029.

In the case of TAAATTGATATTGC A35G, the “relative integration efficiency (log2)” value is -0.559 ± 0.067 in data set [1] and -0.531 ± 0.13 in data set [2].

Take TAAATTGATATTGC A35T: the “relative integration efficiency (log2)” value is -0.27 ± 0.02 in data set [1] and -0.45 ± 0.076 in data set [2].

As for TAAATTGATATTGC A35C, the “relative integration efficiency (log2)” value in data set [1] was -0.0746 ± 0.015; in data set [2], -0.0637 ± 0.3.

As for TAAATTGATCTTGC, the entries for the “relative integration efficiency (log2)” value in data set [1] and in data set [2] were 0.011 ± 0.051 and 0.816 ± 0.13, respectively.

Regarding TAAATTGATATTGC T78G, the “relative integration efficiency (log2)” value stood at 0.0385 ± 0.031 in data set [1] and 0.078 ± 0.44 in data set [2].

Regarding TAAATTGATATTGC T78A, the “relative integration efficiency (log2)” value is -0.396 ± 0.15 in data set [1] and -0.018 ± 0.18 in data set [2].

TAAATTGATATTGC T78C: the “relative integration efficiency (log2)” value in data set [1] is -0.00404 ± 0.024; in data set [2], -0.0349 ± 0.43.

On to TAAATTGATATTGG C77G, for which the “relative integration efficiency (log2)” value in data set [1] was -0.0309 ± 0.041; in data set [2], -0.0151 ± 0.56.

As to AAAATTGATATTGC A62T, the entries for the “relative integration efficiency (log2)” value in data set [1] and in data set [2] were -0.47 ± 0.19 and 1.67 ± 0.025, respectively.

As for TAAATTGATATTGC A56T, the “relative integration efficiency (log2)” value is -0.4 ± 0.052 in data set [1] and 0.0769 ± 0.005 in data set [2].

In the case of TAAATTGATATTGC A56G, the “relative integration efficiency (log2)” value in data set [1] was -0.248 ± 0.083; in data set [2], 0.362 ± 0.33.

TAAATTGATATTGC A56C: the “relative integration efficiency (log2)” value was -0.0165 ± 0.22 in data set [1] and 0.317 ± 0.21 in data set [2].

As to TCAATTGATATTGC, the “relative integration efficiency (log2)” value is 0.124 ± 0.1 in data set [1] and 2.16 ± 0.12 in data set [2].

In the case of TAAATTGATATTGC G26A, the “relative integration efficiency (log2)” value is -0.553 ± 0.15 in data set [1] and -0.268 ± 0.011 in data set [2].

In the case of TAAATTGATATTGC G26T, the “relative integration efficiency (log2)” value in data set [1] was -0.472 ± 0.11; in data set [2] it was -0.0416 ± 0.43.

As for TAAATTGATATTGC G26C, the figures for the “relative integration efficiency (log2)” value in data set [1] and in data set [2] were -1.71 ± 0.29 and -1.36 ± 0.46, respectively.

For TAAATTGATATTGC T32G, the “relative integration efficiency (log2)” value in data set [1] is -1.26 ± 0.063; in data set [2], 0.729 ± 0.26.

On to TAAATTGATATTGC T32C, for which the “relative integration efficiency (log2)” value in data set [1] is -0.438 ± 0.11; in data set [2] it was -0.169 ± 0.21.

For TAAATTGATATTGC T32A, the entries for the “relative integration efficiency (log2)” value in data set [1] and in data set [2] were 0.933 ± 0.11 and 0.96 ± 0.14, respectively.

With TAACGGTATATTGC, the figures for the “relative integration efficiency (log2)” value in data set [1] and in data set [2] were -0.559 ± 0.17 and 2.2 ± 0.3, respectively.

Regarding ATAATTGATATTGC, the “relative integration efficiency (log2)” value in data set [1] was -0.135 ± 0.017; in data set [2] it was 1.11 ± 0.1.

As to TAAGTTGATATTTT C59A, the “relative integration efficiency (log2)” value is 0.0617 ± 0.048 in data set [1] and -0.156 ± 0.28 in data set [2].

As to TAAATTGATTATGC, the figures for the “relative integration efficiency (log2)” value in data set [1] and in data set [2] were -0.138 ± 0.008 and 0.414 ± 0.43, respectively.

Regarding TAAATTGATATTGC T44G, the “relative integration efficiency (log2)” value in data set [1] was -0.00517 ± 0.11; in data set [2], -0.385 ± 0.26.

Regarding TAAATTGATATTGC T44A, the “relative integration efficiency (log2)” value in data set [1] is 0.0685 ± 0.021; in data set [2], -0.0417 ± 0.00085.

On to TAAATTGATATTGC T44C, for which the “relative integration efficiency (log2)” value in data set [1] is -0.0775 ± 0.082; in data set [2], -0.274 ± 0.09.

For GCCATTGATATTGC A62C, the “relative integration efficiency (log2)” value was -0.86 ± 0.27 in data set [1] and 2.47 ± 0.15 in data set [2].

Regarding ATTTAACTATAACG A19C, the “relative integration efficiency (log2)” value was -1.84 ± 0.3 in data set [1] and 1.06 ± 0.42 in data set [2].

On to ATTTAACTATAACG A19T, for which the “relative integration efficiency (log2)” value in data set [1] is -1.53 ± 0.24; in data set [2], 2.1 ± 0.09.

Regarding ATTTAACTATAACG A19G, the “relative integration efficiency (log2)” value in data set [1] is -0.904 ± 0.018; in data set [2] it was 2.08 ± 0.037.

Consider ATTTAACTATAACG A13T, for which the figures for the “relative integration efficiency (log2)” value in data set [1] and in data set [2] were -1.09 ± 0.14 and 1.84 ± 0.15, respectively.

Turning to ATTTAACTATAACG A13C, the “relative integration efficiency (log2)” value is -0.7 ± 0.17 in data set [1] and 2.25 ± 0.23 in data set [2].
